Results: the RNAGym collection of RNA variant scans (doi:10.7554/elife.80360)

B1: CPEB3 Ribozyme (parent)
chain: GGGGGCCACAGCAGAAGCGUUCACGUCGCGGCCCCUGUCAGAUUCUGGUGAAUCUGCGAAUUCUGCUGU

Variants of: B1
Experiment: self-cleavage, relative activity (ratio to wild type); higher = more cleavage; co-transcriptional

| Variant | self-cleavage |
| --- | --- |
| G1A G31C | 0.0308 |
| G1A G31A | 0.0627 |
| G1A U38C | 0.0492 |
| G1C U21G | 0.244 |
| G1C U21C | 0.184 |
| G1C G3U | 0.0766 |
| G1C G3A | 0.174 |
| G1U C22G | 0.0638 |
| G1U C22A | 0.0628 |
| G1U C22U | 0.102 |
| G1C G14U | 0.164 |
| G1C G14A | 0.152 |
| G1C A16U | 0.159 |
| G1C A16G | 0.254 |
| G1A C34U | 0.0949 |
| G1A C34A | 0.111 |
| G1A C34G | 0.0238 |
| G1C C27U | 0.131 |
| G1C C27A | 0.211 |
| G1C C27G | 0.124 |
| G1C A8U | 0.227 |
| G1C A8C | 0.221 |
| G1C U69A | 0.182 |
| G1A G30A | 0.0887 |

| Variant | self-cleavage |
| --- | --- |
| G1A G30C | 0.0357 |
| G1U A51U | 0.148 |
| G1U A51G | 0.126 |
| G1U A51C | 0.114 |
| G1C A10G | 0.21 |
| G1C C7G | 0.128 |
| G1C C7A | 0.144 |
| G1U C57G | 0.0901 |
| G1C A40G | 0.268 |
| G1C A40C | 0.231 |
| G1U A10U | 0.127 |
| G1U C39A | 0.123 |
| G1U C39U | 0.0961 |
| G1C A23C | 0.25 |
| G1C A23U | 0.222 |
| G1C A23G | 0.149 |
| G1C C33A | 0.197 |
| G1C C33G | 0.118 |
| G1C C33U | 0.282 |
| G1A U44C | 0.135 |
| G1A U44A | 0.0757 |
| G1A A42G | 0.0249 |
| G1A G25C | 0.0807 |
| G1C G30A | 0.192 |

| Variant | self-cleavage |
| --- | --- |
| G1C G30C | 0.174 |
| G1C A52C | 0.2 |
| G1C A52U | 0.201 |
| G1C A52G | 0.24 |
| G1A U20A | 0.0538 |
| G1A U20G | 0.0728 |
| G1A U20C | 0.0855 |
| G1C A42C | 0.274 |
| G1C A42G | 0.152 |
| G1C C9U | 0.246 |
| G1C C9G | 0.203 |
| G1A C33G | 0.0474 |
| G1A C33U | 0.0123 |
| G1C G65U | 0.212 |
| G1C C29G | 0.106 |
| G1C C29U | 0.105 |
| G1C G4C | 0.216 |
| G1C G4A | 0.225 |
| G1A A40U | 0.0506 |
| G1A A40C | 0.028 |
| G1C C6G | 0.658 |
| G1C C6U | 0.282 |
| G1C C6A | 0.26 |
| G1U A59U | 0.114 |

| Variant | self-cleavage |
| --- | --- |
| G1U A59G | 0.148 |
| G1U A59C | 0.0892 |
| G1U C32U | 0.157 |
| G1U C32G | 0.09 |
| G1U C32A | 0.201 |
| G1A U69A | 0.0727 |
| G1A U69C | 0.187 |
| G1A U69G | 0.23 |
| G1C G5U | 0.114 |
| G1A G14A | 0.0754 |
| G1A G14C | 0.0574 |
| G1C U38C | 0.231 |
| G1C U38G | 0.112 |
| G1U C7A | 0.0722 |
| G1U C7G | 0.127 |
| G1A G17U | 0.047 |
| G1A G17A | 0.0759 |
| G1A A15C | 0.113 |
| G1A A15G | 0.159 |
| G1A A15U | 0.105 |
| G1C C57G | 0.104 |
| G1C C57A | 0.116 |
| G1A U49A | 0.075 |
| G1A U49G | 0.13 |

| Variant | self-cleavage |
| --- | --- |
| G1A U64G | 0.0694 |
| G1A U64A | 0.134 |
| G1C U53G | 0.232 |
| G1C U53A | 0.225 |
| G1A U61C | 0.0531 |
| G1C A51U | 0.192 |
| G1C A51C | 0.149 |
| G1C U61G | 0.271 |
| G1C U61C | 0.141 |
| G1A A16G | 0.0235 |
| G1C G37C | 0.125 |
| G1C G37U | 0.101 |
| G1A C24G | 0.163 |
| G1A C24U | 0.0626 |
| G1A C24A | 0.0536 |
| G1C G2A | 0.408 |
| G1U C33A | 0.176 |
| G1C C45U | 0.24 |
| G1C C45A | 0.252 |
| G1C C45G | 0.182 |
| G1A G56A | 0.0858 |
| G1A G56C | 0.0841 |
| G1A G56U | 0.103 |
| G1A G48A | 0.0895 |

| Variant | self-cleavage |
| --- | --- |
| G1A G48U | 0.045 |
| G1A A52U | 0.0595 |
| G1A A52C | 0.113 |
| G1A A52G | 0.0619 |
| G1A C12A | 0.0768 |
| G1A C12G | 0.0843 |
| G1C G28C | 0.12 |
| G1C G28U | 0.0985 |
| G1A A13C | 0.0638 |
| G1A A13U | 0.0681 |
| G1A A13G | 0.0336 |
| G1A U21G | 0.0454 |
| G1A U21A | 0.132 |
| G1A U26A | 0.077 |
| G1A U26G | 0.0674 |
| G1A U26C | 0.138 |
| G1A C6U | 0.105 |
| G1A C6G | 0.0647 |
| G1A C6A | 0.0849 |
| G1C G47A | 0.242 |
| G1C G47U | 0.268 |
| G1C G47C | 0.213 |
| G1C U62A | 0.279 |
| G1C U62G | 0.177 |

| Variant | self-cleavage |
| --- | --- |
| G1C | 0.219 |
| G1U | 0.11 |
| G1A | 0.104 |
| G1A G4A | 0.28 |
| G1A G4C | 0.0471 |
| G1C U46C | 0.248 |
| G1A U67C | 0.121 |
| G1A G68C | 0.222 |
| G1A G68A | 0.136 |
| G1A G68U | 0.159 |
| G1U A60C | 0.0797 |
| G1C C22G | 0.0703 |
| G1C C22A | 0.0757 |
| G1C A60G | 0.273 |
| G1C A60C | 0.0756 |
| G1U C24G | 0.0268 |
| G1C C24A | 0.0947 |
| G1C U20G | 0.131 |
| G1C U20C | 0.098 |
| G1C G68C | 0.219 |
| G1C G68U | 0.297 |
| G1C G68A | 0.304 |
| G1A C27A | 0.0748 |
